Experimental data from patent publication US5985836A, “Alpha-1 proteinase inhibitor binding peptides” (Bayer Corporation, priority 1998, dated 1999).
Ends that are not written are not given here.

Experiments:
A1PI [1] = target: T1, A1PI (Homo sapiens, UniProt P01009); experiment: Purification of A1PI from Effluent II+III on peptide column, A1PI mass balance; type: binding; conditions: Table 11, 1 ml Eff. II+III, 4° C.; for Mass A1PI per Eluate Fraction, 1M NaCl / Mass A1PI per Eluate Fraction, 2% Acetic Acid / Mass A1PI per Eluate Fraction, Flowthrough: * Below detection limit; for Percent Eluted by Fraction, 1M NaCl / Percent Eluted by Fraction, 2% Acetic Acid / Percent Eluted by Fraction, Flowthrough: A1PI
T1 construct: Human plasma is currently the only approved source of therapeutic AlPI
T1 sequence (P01009 25-418): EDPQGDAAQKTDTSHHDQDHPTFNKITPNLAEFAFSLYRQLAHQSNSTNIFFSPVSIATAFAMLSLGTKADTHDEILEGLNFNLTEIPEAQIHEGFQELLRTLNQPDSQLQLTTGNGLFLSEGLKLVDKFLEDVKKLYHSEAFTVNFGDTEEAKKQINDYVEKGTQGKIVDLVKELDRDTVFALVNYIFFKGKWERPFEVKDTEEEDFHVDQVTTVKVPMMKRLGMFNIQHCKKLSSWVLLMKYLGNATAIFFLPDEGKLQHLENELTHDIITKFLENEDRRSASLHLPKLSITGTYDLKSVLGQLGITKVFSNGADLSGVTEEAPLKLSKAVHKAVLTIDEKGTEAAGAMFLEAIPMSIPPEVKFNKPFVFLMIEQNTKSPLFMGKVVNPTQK
Description: Sequences 1-11 and 15 were assayed with Effluent II+III (Eff. II+III). Eff. II+III is a process intermediate in the Cohn plasma fractionation process. The feed stream contains 20% (by volume) ethanol, 20-25 mg/ml hSA and approximately 1 mg/ml AlPI. The stream also contains other proteins including anti-thrombin III (AT3), immunoglobin G (IgG), immunoglobin A (IgA), apolipoprotein alpha-1 (Apo A-1), transferrin (Trf), haptoglobin (Hpt), and alpha-1 acid glycoprotein (AAG) at concentrations ranging from 0.1-1 mg/ml.
The columns were assayed using the same technique as the hSA+AlPI experiments, allowing for a 10 minute residence time followed by a constant flow rate of 865 μl/min with step elutions of 1M NaCl, 3M NaCl, and 2% acetic acid. All experiments were conducted at 4° C. The mass balances for the injection of 1 ml Eff. […] The AlPI was enriched from 3% of the total protein in the feed to upwards of 50% in the acid eluate.

A1PI [2] = target: T1, A1PI; experiment: A1PI binding on peptide-resin column, injection of 1 mg A1PI in equilibration buffer; conditions: for % of Total A1PI Eluted by Fraction (Based on Absorbance at 280 nm), 1M NaCl / % of Total A1PI Eluted by Fraction (Based on Absorbance at 280 nm), 2% Acetic Acid / % of Total A1PI Eluted by Fraction (Based on Absorbance at 280 nm), Flowthrough: Trp position mutations, 1 mg A1PI
Procedure, shortened: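 Peptides synthesized on A-Totda-Toyopearl chelate resin (0.1 mmole/g) packed in 0.4×5 cm columns; 1 mg A1PI injected in equilibration buffer at 4 °C or 20 °C, 865 or 523 μl/min. Flowthrough, 1M/3M NaCl washes and 2% acetic acid eluate quantified by A280 or immunonephelometry as percent of total eluted.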

A1PI [3] = target: T1, A1PI; experiment: A1PI purification from 5 mg hSA + 1 mg A1PI on peptide column, A1PI mass balance; type: binding; conditions: A1PI, 5 mg hSA + 1 mg A1PI
Description: Confirmatory binding assays were performed in a column chromatographic format on a microbore HPLC using individual peptide sequences synthesized directly onto the Toyopearl 650 M Chelate resin which had been modified with Totda followed by an alanine residue (A-Totda-Toyopearl), at a final substitution density of 0.1 mmole/g resin. The resin was packed into 0.4×5 cm columns (Thomson, Springfield, Va.) and tested on the Michrom HPLC system (Michrom BioResources, Auburn, Calif.). The elution program for all trials utilized the following method. The column was pre-equilibrated with equilibration buffer (as above). 1 ml of sample was injected and allowed sufficient time to flowthrough the column using equilibration buffer. The column was then washed with step elutions of 1M NaCl and 3M NaCl in equilibration buffer. The column was exposed to equilibration buffer with 0.1M NaCl. Any remaining protein was eluted with elution buffer (2% by volume glacial acetic acid in water).
A Gilson FC204 fraction collector at the HPLC outlet collected individual eluates for further analysis. Fractions collected from the 2% acetic acid eluates were neutralized with 2M Tris, pH 10.5 to bring the pH to neutrality. The protein samples were reconstituted in equilibration buffer unless otherwise stated. The samples were analyzed by the integration of the absorbance at 280 nm or by immunonephelometry. The specific method of determination is presented for each figure.
Columns were assayed with a mixture of 5 mg human serum albumin (hSA)+1 mg AlPI at 4° C. (Table 4, Seq. ID 1-11, 15, 17) and 20° C. (Table 5, Seq. ID 1-10, 13, 15, 17). The chromatography method was modified to provide for a 10 minute residence time of sample in the column by decreasing the flow to 17 μl/min (10 cm/hr) upon injection. Following the incubation, the flow was set at 865 μl/min (413 cm/hr) for the step elutions of 1M NaCl, 3M NaCl, and 2% acetic acid. The mass balances presented are based upon immunonephelometry. The Percent Eluted value is protein-specific and based on the amount of the protein eluted in a […]

[4] = 1 mg A1PI in equilibration buffer, 4° C.
[5] = 1 mg A1PI in equilibration buffer, 20° C.
[6] = 4° C., relative to total eluted
[7] = 20° C., * Below detection limit
[8] = 20° C., relative to total eluted

Substance	Mass A1PI per Eluate Fraction, 1M NaCl (A1PI [1]) [mg]	Mass A1PI per Eluate Fraction, 2% Acetic Acid (A1PI [1]) [mg]	Mass A1PI per Eluate Fraction, Flowthrough (A1PI [1]) [mg]	Percent Eluted by Fraction, 1M NaCl (A1PI [1]) [%]	Percent Eluted by Fraction, 2% Acetic Acid (A1PI [1]) [%]	Percent Eluted by Fraction, Flowthrough (A1PI [1]) [%]	% of Total A1PI Eluted by Fraction (Based on Absorbance at 280 nm), 1M NaCl (A1PI [2]; 4° C.) [%]	% of Total A1PI Eluted by Fraction (Based on Absorbance at 280 nm), 2% Acetic Acid (A1PI [2]; 4° C.) [%]	% of Total A1PI Eluted by Fraction (Based on Absorbance at 280 nm), Flowthrough (A1PI [2]; 4° C.) [%]	% of Total A1PI Eluted by Fraction (Based on Absorbance at 280 nm), 1M NaCl (A1PI [2]; 20° C.) [%]	% of Total A1PI Eluted by Fraction (Based on Absorbance at 280 nm), 2% Acetic Acid (A1PI [2]; 20° C.) [%]	% of Total A1PI Eluted by Fraction (Based on Absorbance at 280 nm), Flowthrough (A1PI [2]; 20° C.) [%]	other results
V I A L V R: VIWLVR with Trp at position 3 replaced by Ala (VIALVR)	0.05	0.35	0.18	8	61	31	92	8	0	36	53	10	
V I S L V R: VIWLVR with Trp at position 3 replaced by Ser (VISLVR)	0.14	0.26	0.14	26	49	25	100	0	0	75	14	11	
WKLWRW													Percent A1PI Eluted by Fraction Based on Absorbance at 280 nm, 1M NaCl (A1PI [2]; [4]): 80%; Percent A1PI Eluted by Fraction Based on Absorbance at 280 nm, 2% Acetic Acid (A1PI [2]; [4]): 20%; Percent A1PI Eluted by Fraction Based on Absorbance at 280 nm, Flowthrough (A1PI [2]; [4]): 0%; Percent A1PI Eluted by Fraction, 1M NaCl (A1PI [2]; [5]): 67%; Percent A1PI Eluted by Fraction, 2% Acetic Acid (A1PI [2]; [5]): 33%; Percent A1PI Eluted by Fraction, Flowthrough (A1PI [2]; [5]): 0%; Mass Protein per Eluate Fraction, 1M NaCl (A1PI [3]; 4° C., * Below detection limit): 0.44 mg; Mass Protein per Eluate Fraction, 2% Ac. Acid (A1PI [3]; 4° C., * Below detection limit): 0.06 mg; Mass Protein per Eluate Fraction, Flow (A1PI [3]; 4° C., * Below detection limit): 0.17 mg; Percent Eluted by Fraction, 1M NaCl (A1PI [3]; [6]): 66%; Percent Eluted by Fraction, 2% Ac. Acid (A1PI [3]; [6]): 9%; Percent Eluted by Fraction, Flow (A1PI [3]; [6]): 25%; Mass Protein per Eluate Fraction, 1M NaCl (A1PI [3]; [7]): 0.15 mg; Mass Protein per Eluate Fraction, 2% Ac. Acid (A1PI [3]; [7]): 0.40 mg; Mass Protein per Eluate Fraction, 3M NaCl (A1PI [3]; [7]): 0.05 mg; Mass Protein per Eluate Fraction, Flow (A1PI [3]; [7]): 0.16 mg; Percent Eluted by Fraction, 1M NaCl (A1PI [3]; [8]): 20%; Percent Eluted by Fraction, 2% Ac. Acid (A1PI [3]; [8]): 52%; Percent Eluted by Fraction, 3M NaCl (A1PI [3]; [8]): 7%; Percent Eluted by Fraction, Flow (A1PI [3]; [8]): 21%

Second part, led by results:

Mass A1PI per Eluate Fraction, 1M NaCl (A1PI [1]) [mg]	Mass A1PI per Eluate Fraction, 2% Acetic Acid (A1PI [1]) [mg]	Mass A1PI per Eluate Fraction, Flowthrough (A1PI [1]) [mg]	Percent Eluted by Fraction, 1M NaCl (A1PI [1]) [%]	Percent Eluted by Fraction, 2% Acetic Acid (A1PI [1]) [%]	Percent Eluted by Fraction, Flowthrough (A1PI [1]) [%]	% of Total A1PI Eluted by Fraction (Based on Absorbance at 280 nm), 1M NaCl (A1PI [2]; 4° C.) [%]	% of Total A1PI Eluted by Fraction (Based on Absorbance at 280 nm), 2% Acetic Acid (A1PI [2]; 4° C.) [%]	% of Total A1PI Eluted by Fraction (Based on Absorbance at 280 nm), Flowthrough (A1PI [2]; 4° C.) [%]	% of Total A1PI Eluted by Fraction (Based on Absorbance at 280 nm), 1M NaCl (A1PI [2]; 20° C.) [%]	% of Total A1PI Eluted by Fraction (Based on Absorbance at 280 nm), 2% Acetic Acid (A1PI [2]; 20° C.) [%]	% of Total A1PI Eluted by Fraction (Based on Absorbance at 280 nm), Flowthrough (A1PI [2]; 20° C.) [%]	Substance	other results
0.07	0.54	0.42	7	52	41	7	93	0				V I L L V R: VIWLVR with Trp at position 3 replaced by Leu (VILLVR)	
	0.53	0.44	0	55	45	8	92	0	7	93	0	V I N L V R: VIWLVR with Trp at position 3 replaced by Asn (VINLVR)	
